Assay results from FireProtDB (doi:10.1021/bi991296s).
Where “and” joins values, the source holds several entries; their conditions need not be identical. Equal values may be shown once.

Conditions: Escherichia coli (strain K12), pH 7.8, 25 °C, Urea, transition: 4, whole UniProt chain shown
[1] = SAXS, Potassium phosphate 10 mM
[2] = SEC, Potassium phosphate 100 mM

B1: Tryptophan synthase alpha chain wild type, P0A877 (protein)
chain: MERYESLFAQLKERKEGAFVPFVTLGDPGIEQSLKIIDTLIEAGADALELGIPFSDPLADGPTIQNATLRAFAAGVTPAQCFEMLALIRQKHPTIPIGLLMYANLVFNKGIDEFYAQCEKVGVDSVLVADVPVEESAPFRQAALRHNVAPIFICPPNADDDLLRQIASYGRGYTYLLSRAGVTGAENRAALPLNHLVAKLKEYNAAPPLQGFGISAPDQVKAAIDAGAAGAISGSAIVKIIEQHINEPEKMLAALKVFVQPMKAATRS
With B1 the denaturant m value (CD, Potassium phosphate 10 mM) was 2.2 kcal/mol/M and 1.1 kcal/mol/M and 0.84 kcal/mol/M, the unfolding free energy (CD, Potassium phosphate 10 mM) was 6 kcal/mol and 4.5 kcal/mol and 4.9 kcal/mol and the denaturant m value [1] was 2 kcal/mol/M and 0.9 kcal/mol/M. The unfolding free energy [1] was 5.3 kcal/mol and 3.1 kcal/mol, the denaturant m value [2] was 2 kcal/mol/M and 1.2 kcal/mol/M and the unfolding free energy [2] was 5.7 kcal/mol and 4.9 kcal/mol.
